Data taken from patent publication US10583167B2, “Mammalian glucosidase inhibitors, methods for their use and pharmaceutical compositions thereof” (THE UNIVERSITY OF BRITISH COLUMBIA, priority 2015, dated 2020).
Entries after “also recorded” stand apart in the source; their conditions may differ. Bridges are numbered along the chain shown (N, C = ends).

What was measured:
[1] = target: T1, human pancreatic α-amylase (HPA) (Homo sapiens, UniProt P04746); settings: from parallel screen; read-out: Ki against HPA; cited from earlier work
T1 construct: made in house; host or cells: Pichia pastoris
T1 sequence (P04746 16-511): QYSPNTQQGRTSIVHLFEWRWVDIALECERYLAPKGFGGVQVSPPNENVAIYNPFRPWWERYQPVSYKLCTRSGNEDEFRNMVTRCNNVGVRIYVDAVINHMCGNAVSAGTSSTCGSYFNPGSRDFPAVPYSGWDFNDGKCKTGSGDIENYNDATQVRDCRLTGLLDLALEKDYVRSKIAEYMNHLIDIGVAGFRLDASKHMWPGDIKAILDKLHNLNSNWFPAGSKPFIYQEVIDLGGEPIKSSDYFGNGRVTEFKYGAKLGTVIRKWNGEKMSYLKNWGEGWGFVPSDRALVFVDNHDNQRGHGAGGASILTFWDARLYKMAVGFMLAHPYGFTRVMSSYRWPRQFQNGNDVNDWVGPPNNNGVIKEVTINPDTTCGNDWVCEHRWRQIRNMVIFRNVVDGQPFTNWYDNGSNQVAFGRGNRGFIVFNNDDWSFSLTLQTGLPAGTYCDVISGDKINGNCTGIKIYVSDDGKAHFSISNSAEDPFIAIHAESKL

mammalian alpha-amylase = target: T2, mammalian alpha-amylase (Homo sapiens, UniProt P04746); assay: Inhibitory activity of truncated and fusion peptides; assay type: biochemical; settings: for Inhibitory Activity: truncated peptides
T2 sequence (P04746 16-511): T1 sequence (P04746 16-511)

[2] = 11M HCl at 37° C. for four days, HPLC
Method: The sample was diluted and neutralized before desalting by C18 reverse phase chromatography. The peptide mixture was injected into an Agilent™ 6460 QQQ LC/MS mass spectrometer. Elution and MS/MS analysis was carried out over a 40-minute period. A script was written to predict all possible fragments for the helianthamide sequence in the event of random hydrolysis and was used to analyze the resulting MS and MS/MS peaks.
Intact peptide was incubated in 11M HCl at 37° C. for four days.

[3] = system: trypsin, chymotrypsin, proteinase K, and Lys-C
[4] = target: Bacillus licheniformis α-amylase (Bacillus licheniformis, UniProt P06278); assay: Inhibitory specificity: kinetic analysis; assay type: biochemical; settings: up to 1 μM
Method: (§1) Assays were performed on a Varian Cary 300™ UV/Vis spectrophotometer. The release of 2-chloro-nitrophenol resulting from the amylase catalyzed hydrolysis of 2-chloro-p-nitrophenyl-α-D-maltotrioside was monitored at 400 nm. Reactions were run at 30° C. in 50 mM sodium phosphate, 100 mM sodium chloride (pH 7.0). Reactions were monitored over 5 minutes to measure the initial reaction rate. […] Reactions were run with a final [CNPG3]=5 mM. […] Up to 5 different enzyme concentrations were used, ranging from 1 nM to 10 nM. v/vo was plotted against [I] for each enzyme concentration to form a series of dose response curves. […] Kiapp was then used to calculate Ki. […] Details of this process can be found in the work done by Tarling et al. (33). After kinetic analysis with HPA, nine additional enzymes were tested against helianthamide. Concentrations of up to 1 μM of Helianthamide were used to assess for inhibition.
(§2) Inhibition of nine other glycosidases was explored (TABLE 4).

Jack bean α-mannosidase = target: T3, Jack bean α-mannosidase (Canavalia ensiformis, UniProt C0HJB3); assay: Inhibitory specificity: kinetic analysis; assay type: biochemical; settings: up to 1 μM
T3 construct: Jack bean α-mannosidase; from tissue; host or cells: jack bean
T3 sequence (C0HJB3 1-981): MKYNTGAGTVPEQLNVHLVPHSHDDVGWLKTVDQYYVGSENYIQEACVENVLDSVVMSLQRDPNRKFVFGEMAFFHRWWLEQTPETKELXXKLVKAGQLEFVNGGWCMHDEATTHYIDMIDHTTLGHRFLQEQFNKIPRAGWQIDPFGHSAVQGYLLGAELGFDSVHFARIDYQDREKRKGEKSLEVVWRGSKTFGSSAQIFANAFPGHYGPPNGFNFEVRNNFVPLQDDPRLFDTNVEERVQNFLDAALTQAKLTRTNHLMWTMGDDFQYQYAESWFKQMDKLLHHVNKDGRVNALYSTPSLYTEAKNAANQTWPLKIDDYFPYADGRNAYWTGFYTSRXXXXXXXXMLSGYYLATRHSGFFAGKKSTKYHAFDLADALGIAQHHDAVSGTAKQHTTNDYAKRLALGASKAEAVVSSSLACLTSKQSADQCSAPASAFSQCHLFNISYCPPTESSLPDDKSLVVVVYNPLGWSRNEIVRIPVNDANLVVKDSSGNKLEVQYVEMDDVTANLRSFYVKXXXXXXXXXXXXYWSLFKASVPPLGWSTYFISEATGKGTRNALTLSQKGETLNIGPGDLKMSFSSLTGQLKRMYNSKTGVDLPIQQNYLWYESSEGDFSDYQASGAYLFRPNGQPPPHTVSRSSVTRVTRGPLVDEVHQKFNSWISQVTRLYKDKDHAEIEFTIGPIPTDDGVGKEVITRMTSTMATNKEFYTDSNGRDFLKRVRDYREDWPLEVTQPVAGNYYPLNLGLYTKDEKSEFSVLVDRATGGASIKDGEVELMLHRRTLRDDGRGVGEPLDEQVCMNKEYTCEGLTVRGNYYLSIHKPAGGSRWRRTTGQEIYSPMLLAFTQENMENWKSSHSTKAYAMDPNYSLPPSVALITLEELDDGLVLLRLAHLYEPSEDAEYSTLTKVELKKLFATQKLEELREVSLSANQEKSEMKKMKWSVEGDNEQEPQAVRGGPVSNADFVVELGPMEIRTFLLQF
Method: as §1, §2

[5] = target: T4, Green coffee bean α-galactosidase (Coffea arabica, UniProt Q42656); assay: Inhibitory specificity: kinetic analysis; assay type: biochemical; settings: up to 1 μM
T4 construct: Green coffee bean α-galactosidase; from tissue; host or cells: green coffee beans
Method: as §1, §2

[6] = target: Bovine liver β-galactosidase; assay: Inhibitory specificity: kinetic analysis; assay type: biochemical; settings: up to 1 μM
Method: as §1, §2

Almond β-glucosidase = assay: Inhibitory specificity: kinetic analysis; assay type: biochemical; settings: up to 1 μM
Method: as §1, §2

[7] = target: Butyrivibrio fibrisolvens α-amylase B; assay: Inhibitory specificity: kinetic analysis; assay type: biochemical; settings: up to 1 μM
Method: as §1, §2

[8] = target: Human maltase-glucoamylase (Homo sapiens, UniProt O43451); assay: Inhibitory specificity: kinetic analysis; assay type: biochemical; settings: up to 1 μM
Method: as §1, §2

[9] = target: Brewer's yeast α-glucosidase; assay: Inhibitory specificity: kinetic analysis; assay type: biochemical; settings: up to 1 μM
Method: as §1, §2

[10] = target: Roseburia inulinivorans α-amylase A; assay: Inhibitory specificity: kinetic analysis; assay type: biochemical; settings: up to 1 μM
Method: as §1, §2

[11] = target: T1, human pancreatic α-amylase (HPA); assay: Kinetic analysis of HPA inhibition (CNP-G3 hydrolysis, Morrison / Michaelis-Menten); assay type: biochemical; settings: for Ki / inhibition constant estimated in preliminary tests: preliminary inhibitory studies with remaining material
Method: A detailed protocol of this expression can be found in the work done by Rydberg et al. (39) Expression was carried out in Pichia pastoris. Colonies were grown in 600 mL BMGY media at 30° C. 200 RPM. 20 mL of the overnight culture was added to 600 mL BMGY. After 16 hours the cells were transferred to 300 mL BMMY. After one day 2 mL of 50% methanol was added. The culture was left overnight. The culture supernatant was collected and purified via Phenyl Sepharose™ and Hitrap Q™ columns. Deglycosylation was performed with EndoF™.
Reactions were run with a final [CNPG3]=5 mM. […] Kiapp was then used to calculate Ki.
Given the low-nM estimate of Ki for the natural extract, kinetic analysis could not be pursued through standard Michaelis-Menten kinetics (22). In this study, inhibition constants below 50 nM were determined using the Morrison method: inhibition dose response curves at [S]=KM were constructed for varying enzyme concentrations (23, 24). The resulting data (FIG. 2A) was fit to the Morrison equation 1 to determine Ki,app, which could be converted to Ki through equation 2, which is the relationship between these values for competitive inhibition.

Sequence of Bacillus licheniformis α-amylase (P06278 30-512): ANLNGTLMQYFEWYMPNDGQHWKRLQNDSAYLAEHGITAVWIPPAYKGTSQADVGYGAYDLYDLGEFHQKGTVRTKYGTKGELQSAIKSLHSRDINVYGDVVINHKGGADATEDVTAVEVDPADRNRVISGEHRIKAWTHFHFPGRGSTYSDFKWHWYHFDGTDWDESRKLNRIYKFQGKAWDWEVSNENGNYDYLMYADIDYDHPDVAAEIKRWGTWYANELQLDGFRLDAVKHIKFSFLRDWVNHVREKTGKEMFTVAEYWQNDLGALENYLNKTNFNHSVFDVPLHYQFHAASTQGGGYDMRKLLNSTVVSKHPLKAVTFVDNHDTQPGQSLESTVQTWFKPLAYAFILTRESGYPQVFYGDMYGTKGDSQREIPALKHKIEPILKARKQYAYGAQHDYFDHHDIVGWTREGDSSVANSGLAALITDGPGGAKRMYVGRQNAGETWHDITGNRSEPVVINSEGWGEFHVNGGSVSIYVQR
Sequence of Human maltase-glucoamylase (O43451 whole entry): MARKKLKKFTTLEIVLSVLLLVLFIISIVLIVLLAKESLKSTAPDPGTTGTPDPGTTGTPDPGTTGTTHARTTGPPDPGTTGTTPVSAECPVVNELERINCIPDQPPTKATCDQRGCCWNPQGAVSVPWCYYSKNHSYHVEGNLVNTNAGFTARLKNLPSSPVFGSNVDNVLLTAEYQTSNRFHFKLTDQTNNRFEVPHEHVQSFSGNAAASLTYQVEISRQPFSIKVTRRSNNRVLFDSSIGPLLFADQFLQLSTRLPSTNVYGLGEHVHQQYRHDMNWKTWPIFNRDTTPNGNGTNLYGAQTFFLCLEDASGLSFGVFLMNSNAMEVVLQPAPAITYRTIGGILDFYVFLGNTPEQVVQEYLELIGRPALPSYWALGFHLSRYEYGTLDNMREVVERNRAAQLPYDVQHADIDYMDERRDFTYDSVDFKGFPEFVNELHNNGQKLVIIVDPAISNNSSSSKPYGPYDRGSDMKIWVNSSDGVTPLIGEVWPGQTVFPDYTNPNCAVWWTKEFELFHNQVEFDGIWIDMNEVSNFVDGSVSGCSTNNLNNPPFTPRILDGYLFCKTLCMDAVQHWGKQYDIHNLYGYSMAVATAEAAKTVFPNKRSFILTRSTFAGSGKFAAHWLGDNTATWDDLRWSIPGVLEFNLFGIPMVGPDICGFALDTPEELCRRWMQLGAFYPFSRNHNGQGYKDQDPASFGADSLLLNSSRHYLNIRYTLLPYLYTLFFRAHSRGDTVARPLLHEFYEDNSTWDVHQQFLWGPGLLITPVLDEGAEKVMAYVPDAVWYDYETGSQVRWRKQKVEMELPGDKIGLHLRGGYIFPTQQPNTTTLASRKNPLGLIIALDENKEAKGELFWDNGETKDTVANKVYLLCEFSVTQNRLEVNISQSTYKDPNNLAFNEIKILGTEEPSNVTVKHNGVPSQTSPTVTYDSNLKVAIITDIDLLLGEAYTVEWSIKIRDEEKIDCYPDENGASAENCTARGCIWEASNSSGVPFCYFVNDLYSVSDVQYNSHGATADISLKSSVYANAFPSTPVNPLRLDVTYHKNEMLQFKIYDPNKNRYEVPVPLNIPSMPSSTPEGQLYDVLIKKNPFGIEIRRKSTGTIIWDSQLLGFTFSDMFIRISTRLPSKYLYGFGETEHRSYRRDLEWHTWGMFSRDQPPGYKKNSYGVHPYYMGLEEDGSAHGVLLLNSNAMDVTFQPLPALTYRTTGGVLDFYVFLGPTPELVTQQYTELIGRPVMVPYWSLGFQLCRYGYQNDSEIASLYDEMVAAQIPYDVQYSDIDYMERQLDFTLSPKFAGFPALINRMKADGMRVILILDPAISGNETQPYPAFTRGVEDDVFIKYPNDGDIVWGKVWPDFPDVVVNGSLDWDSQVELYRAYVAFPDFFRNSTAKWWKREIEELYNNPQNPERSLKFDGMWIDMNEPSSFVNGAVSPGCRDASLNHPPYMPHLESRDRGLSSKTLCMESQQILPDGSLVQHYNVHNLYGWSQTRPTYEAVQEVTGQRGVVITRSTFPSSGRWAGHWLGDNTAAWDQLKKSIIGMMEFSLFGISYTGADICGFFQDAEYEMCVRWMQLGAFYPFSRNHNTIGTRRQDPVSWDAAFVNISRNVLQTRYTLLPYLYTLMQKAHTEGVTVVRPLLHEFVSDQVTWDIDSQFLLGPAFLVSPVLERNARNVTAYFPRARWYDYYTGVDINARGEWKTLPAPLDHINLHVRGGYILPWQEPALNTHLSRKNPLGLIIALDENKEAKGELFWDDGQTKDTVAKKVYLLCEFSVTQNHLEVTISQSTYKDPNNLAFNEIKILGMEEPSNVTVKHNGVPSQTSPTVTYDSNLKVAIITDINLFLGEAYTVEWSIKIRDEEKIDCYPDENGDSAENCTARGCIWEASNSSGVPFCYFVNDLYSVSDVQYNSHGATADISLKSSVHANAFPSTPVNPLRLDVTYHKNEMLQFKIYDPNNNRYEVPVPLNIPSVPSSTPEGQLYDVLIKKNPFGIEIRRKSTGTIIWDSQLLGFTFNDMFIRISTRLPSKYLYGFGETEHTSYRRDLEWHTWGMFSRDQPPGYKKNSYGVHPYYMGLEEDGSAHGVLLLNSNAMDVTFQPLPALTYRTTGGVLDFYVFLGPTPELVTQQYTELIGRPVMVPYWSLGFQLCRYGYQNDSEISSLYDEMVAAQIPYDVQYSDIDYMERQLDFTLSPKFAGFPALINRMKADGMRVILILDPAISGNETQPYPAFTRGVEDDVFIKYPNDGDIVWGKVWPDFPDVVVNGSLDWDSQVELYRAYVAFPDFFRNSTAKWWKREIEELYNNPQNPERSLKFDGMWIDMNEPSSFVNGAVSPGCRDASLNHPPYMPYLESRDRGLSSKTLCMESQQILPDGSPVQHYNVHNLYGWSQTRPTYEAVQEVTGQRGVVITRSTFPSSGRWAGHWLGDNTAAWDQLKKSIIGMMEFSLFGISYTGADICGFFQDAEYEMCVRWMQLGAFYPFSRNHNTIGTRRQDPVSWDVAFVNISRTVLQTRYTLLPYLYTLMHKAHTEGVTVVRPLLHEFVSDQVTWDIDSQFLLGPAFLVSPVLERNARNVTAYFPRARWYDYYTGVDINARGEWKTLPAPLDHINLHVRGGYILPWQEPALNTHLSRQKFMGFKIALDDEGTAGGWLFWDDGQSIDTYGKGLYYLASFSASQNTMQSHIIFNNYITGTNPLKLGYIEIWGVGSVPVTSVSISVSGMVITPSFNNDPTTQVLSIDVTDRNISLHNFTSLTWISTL
T4 sequence (Q42656 16-378): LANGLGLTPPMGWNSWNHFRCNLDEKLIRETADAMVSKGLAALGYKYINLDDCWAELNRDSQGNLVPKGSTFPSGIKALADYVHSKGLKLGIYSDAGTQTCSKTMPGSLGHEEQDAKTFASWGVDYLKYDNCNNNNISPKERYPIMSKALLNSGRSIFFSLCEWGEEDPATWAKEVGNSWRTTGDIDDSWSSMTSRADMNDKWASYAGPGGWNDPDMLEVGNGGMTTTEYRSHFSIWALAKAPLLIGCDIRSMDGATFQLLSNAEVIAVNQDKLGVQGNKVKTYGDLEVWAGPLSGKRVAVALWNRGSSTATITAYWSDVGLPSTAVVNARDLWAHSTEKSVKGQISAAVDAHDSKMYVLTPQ

Montbretin A
Ki [1]: 8 nM

Ac-YIYHGVSGI-NH2 (listed as Stichodactyla helianthus) [truncated peptide]
Inhibitory Activity (mammalian alpha-amylase): 25 µM

Ac-YIYH-NH2 (listed as Stichodactyla helianthus) [truncated peptide, Ac represents the acetyl functional group]
mammalian alpha-amylase inhibitory activity (in words) (mammalian alpha-amylase): did not have detectable
Inhibitory Activity (mammalian alpha-amylase): no inhibition detected

ESGNSCYIYHGVSGICKASCAEDEKAMAGMGVCEGHLCCYKTPW (listed as Stichodactyla helianthus) [helianthamide, 44 amino acid peptide from the sea anemone Stichodactyla helianthus; natural, synthetic and recombinant forms]
intact peptide remaining after acid incubation [2]: a large proportion of intact peptide remained
resistance to proteolysis [3]: resistant to proteolysis
Ki [4]: > 1000 nM
Ki (Jack bean α-mannosidase): > 1000 nM
Ki [5]: > 1000 nM
Ki [6]: > 1000 nM
Ki (Almond β-glucosidase): > 1000 nM
Ki [7]: > 1000 nM
Ki [8]: > 1000 nM
Ki [9]: > 1000 nM
Ki [10]: > 1000 nM
Ki / inhibition constant estimated in preliminary tests [11]: low-nM
Ki / inhibition constant estimated in preliminary tests ([11]; listed as Helianthamide): low nanomolar; also recorded: low nano-molar
mode of HPA inhibition ([11]; preliminary tests, natural material): reversible competitive inhibition

Ac-CYIYHGVSGIC-NH2 (disulfide 1-11 (inferred); listed as Stichodactyla helianthus) [truncated peptide]
Inhibitory Activity (mammalian alpha-amylase): 30 µM
